Results reported in IntAct's records for PubMed 35512704.

B1: Speckle-type POZ protein (Homo sapiens), O43791 (parent)
chain: MSRVPSPPPPAEMSSGPVAESWCYTQIKVVKFSYMWTINNFSFCREEMGEVIKSSTFSSGANDKLKWCLRVNPKGLDEESKDYLSLYLLLVSCPKSEVRAKFKFSILNAKGEETKAMESQRAYRFVQGKDWGFKKFIRRDFLLDEANGLLPDDKLTLFCEVSVVQDSVNISGQNTMNMVKVPECRLADELGGLWENSRFTDCCLCVAGQEFQAHKAILAARSPVFSAMFEHEMEESKKNRVEINDVEPEVFKEMMCFIYTGKAPNLDKMADDLLAAADKYALERLKVMCEDALCSNLSVENAAEILILADLHSADQLKTQAVDFINYHASDVLETSGWKSMVVSHPHLVAEAYRSLASAQCPFLGPPRKRLKQS

Variants of: B1
Conditions: with gnaq_human GNAQ

Row | effect of a mutation on the interaction | Variant
1 | with no effect | MSRVPSPPPPAEMSSGPVAESWCYTQIKVVKFSYMWTINNFSFCREEMGEVIKSSTFSSGANDKLKWCLRVNPKGLDEESKDYLSLCLLLVSCPKSEVRAKFKFSILNAKGEETKAMESQRAYRFVQGKDWGFKKFIRRDFLLDEANGLLPDDKLTLFCEVSVVQDSVNISGQNTMNMVKVPECRLADELGGLWENSRFTDCCLCVAGQEFQAHKAILAARSPVFSAMFEHEMEESKKNRVEINDVEPEVFKEMMCFIYTGKAPNLDKMADDLLAAADKYALERLKVMCEDALCSNLSVENAAEILILADLHSADQLKTQAVDFINYHASDVLETSGWKSMVVSHPHLVAEAYRSLASAQCPFLGPPRKRLKQS [Y87C]

Variants of: B1
Conditions: with grm1_human GRM1, Q13255
Chain of grm1_human GRM1, Q13255 (Q13255 whole entry, looked up): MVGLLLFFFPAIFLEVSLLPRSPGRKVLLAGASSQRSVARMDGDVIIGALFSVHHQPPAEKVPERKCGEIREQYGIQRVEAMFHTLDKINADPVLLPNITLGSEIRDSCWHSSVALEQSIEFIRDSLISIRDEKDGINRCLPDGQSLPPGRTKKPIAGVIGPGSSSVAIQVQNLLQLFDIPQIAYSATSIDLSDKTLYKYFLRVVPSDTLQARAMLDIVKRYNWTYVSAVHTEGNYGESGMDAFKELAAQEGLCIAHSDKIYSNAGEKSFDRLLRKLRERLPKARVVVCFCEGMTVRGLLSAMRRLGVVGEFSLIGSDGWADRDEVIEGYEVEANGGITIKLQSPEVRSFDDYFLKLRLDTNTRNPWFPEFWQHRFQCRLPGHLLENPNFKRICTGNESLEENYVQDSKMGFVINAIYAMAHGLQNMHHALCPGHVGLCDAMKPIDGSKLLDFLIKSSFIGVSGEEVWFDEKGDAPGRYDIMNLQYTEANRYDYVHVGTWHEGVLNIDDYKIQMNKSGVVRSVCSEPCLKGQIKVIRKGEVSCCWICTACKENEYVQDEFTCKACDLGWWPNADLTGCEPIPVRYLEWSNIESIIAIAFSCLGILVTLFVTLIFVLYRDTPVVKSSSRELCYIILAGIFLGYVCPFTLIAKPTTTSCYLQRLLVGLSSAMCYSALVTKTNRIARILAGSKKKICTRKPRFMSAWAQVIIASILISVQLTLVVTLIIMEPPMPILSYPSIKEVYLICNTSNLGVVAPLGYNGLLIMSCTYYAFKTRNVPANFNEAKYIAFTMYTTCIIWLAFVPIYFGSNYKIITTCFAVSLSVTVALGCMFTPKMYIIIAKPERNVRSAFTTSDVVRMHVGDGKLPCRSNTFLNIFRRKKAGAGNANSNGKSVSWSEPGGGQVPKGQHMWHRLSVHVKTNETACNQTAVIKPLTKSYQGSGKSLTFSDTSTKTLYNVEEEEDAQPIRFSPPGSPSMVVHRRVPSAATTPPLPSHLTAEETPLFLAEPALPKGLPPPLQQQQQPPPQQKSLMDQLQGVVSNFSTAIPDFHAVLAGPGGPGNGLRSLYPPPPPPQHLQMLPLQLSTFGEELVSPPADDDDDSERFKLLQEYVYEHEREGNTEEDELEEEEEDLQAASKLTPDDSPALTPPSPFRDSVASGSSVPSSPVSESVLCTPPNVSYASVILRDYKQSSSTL

Row | effect of a mutation on the interaction | Variant
2 | with no effect | MSRVPSPPPPAEMSSGPVAESWCYTQIKVVKFSYMWTINNFSFCREEMGEVIKSSTFSSGANDKLKWCLRVNPKGLDEESKDYLSLCLLLVSCPKSEVRAKFKFSILNAKGEETKAMESQRAYRFVQGKDWGFKKFIRRDFLLDEANGLLPDDKLTLFCEVSVVQDSVNISGQNTMNMVKVPECRLADELGGLWENSRFTDCCLCVAGQEFQAHKAILAARSPVFSAMFEHEMEESKKNRVEINDVEPEVFKEMMCFIYTGKAPNLDKMADDLLAAADKYALERLKVMCEDALCSNLSVENAAEILILADLHSADQLKTQAVDFINYHASDVLETSGWKSMVVSHPHLVAEAYRSLASAQCPFLGPPRKRLKQS [Y87C]

Variants of: B1
Conditions: with grm3_human GRM3, Q14832
Chain of grm3_human GRM3, Q14832 (Q14832 whole entry, looked up): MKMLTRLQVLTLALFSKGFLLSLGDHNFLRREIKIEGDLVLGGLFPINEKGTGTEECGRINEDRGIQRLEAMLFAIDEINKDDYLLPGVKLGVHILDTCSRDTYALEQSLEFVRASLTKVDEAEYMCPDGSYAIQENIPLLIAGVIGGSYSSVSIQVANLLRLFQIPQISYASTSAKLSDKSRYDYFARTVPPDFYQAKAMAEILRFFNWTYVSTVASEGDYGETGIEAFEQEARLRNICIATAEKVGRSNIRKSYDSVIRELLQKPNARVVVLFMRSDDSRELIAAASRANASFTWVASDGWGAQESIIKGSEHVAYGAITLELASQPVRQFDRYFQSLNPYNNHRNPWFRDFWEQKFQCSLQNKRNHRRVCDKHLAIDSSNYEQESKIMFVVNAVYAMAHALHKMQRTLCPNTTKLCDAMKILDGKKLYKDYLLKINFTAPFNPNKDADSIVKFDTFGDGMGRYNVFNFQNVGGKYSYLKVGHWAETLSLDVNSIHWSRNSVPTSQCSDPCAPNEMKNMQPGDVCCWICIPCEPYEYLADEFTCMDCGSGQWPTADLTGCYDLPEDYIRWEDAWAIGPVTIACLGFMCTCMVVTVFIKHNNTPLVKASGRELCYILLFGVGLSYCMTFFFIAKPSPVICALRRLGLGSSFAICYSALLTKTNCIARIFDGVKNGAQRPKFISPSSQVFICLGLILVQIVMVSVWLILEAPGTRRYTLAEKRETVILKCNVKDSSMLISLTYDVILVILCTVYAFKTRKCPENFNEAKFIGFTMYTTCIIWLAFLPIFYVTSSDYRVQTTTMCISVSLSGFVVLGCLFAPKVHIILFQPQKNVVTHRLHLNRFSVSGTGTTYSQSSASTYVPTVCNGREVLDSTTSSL

Row | effect of a mutation on the interaction | Variant
3 | with no effect | MSRVPSPPPPAEMSSGPVAESWCYTQIKVVKFSYMWTINNFSFCREEMGEVIKSSTFSSGANDKLKWCLRVNPKGLDEESKDYLSLCLLLVSCPKSEVRAKFKFSILNAKGEETKAMESQRAYRFVQGKDWGFKKFIRRDFLLDEANGLLPDDKLTLFCEVSVVQDSVNISGQNTMNMVKVPECRLADELGGLWENSRFTDCCLCVAGQEFQAHKAILAARSPVFSAMFEHEMEESKKNRVEINDVEPEVFKEMMCFIYTGKAPNLDKMADDLLAAADKYALERLKVMCEDALCSNLSVENAAEILILADLHSADQLKTQAVDFINYHASDVLETSGWKSMVVSHPHLVAEAYRSLASAQCPFLGPPRKRLKQS [Y87C]

Variants of: B1
Conditions: with gsk3b_human GSK3B

Row | effect of a mutation on the interaction | Variant
4 | with no effect | MSRVPSPPPPAEMSSGPVAESWCYTQIKVVKFSYMWTINNFSFCREEMGEVIKSSTFSSGANDKLKWCLRVNPKGLDEESKDYLSLCLLLVSCPKSEVRAKFKFSILNAKGEETKAMESQRAYRFVQGKDWGFKKFIRRDFLLDEANGLLPDDKLTLFCEVSVVQDSVNISGQNTMNMVKVPECRLADELGGLWENSRFTDCCLCVAGQEFQAHKAILAARSPVFSAMFEHEMEESKKNRVEINDVEPEVFKEMMCFIYTGKAPNLDKMADDLLAAADKYALERLKVMCEDALCSNLSVENAAEILILADLHSADQLKTQAVDFINYHASDVLETSGWKSMVVSHPHLVAEAYRSLASAQCPFLGPPRKRLKQS [Y87C]

Variants of: B1
Conditions: with gtpb4_human GTPBP4, Q9BZE4

Row | effect of a mutation on the interaction | Variant
5 | with no effect | MSRVPSPPPPAEMSSGPVAESWCYTQIKVVKFSYMWTINNFSFCREEMGEVIKSSTFSSGANDKLKWCLRVNPKGLDEESKDYLSLCLLLVSCPKSEVRAKFKFSILNAKGEETKAMESQRAYRFVQGKDWGFKKFIRRDFLLDEANGLLPDDKLTLFCEVSVVQDSVNISGQNTMNMVKVPECRLADELGGLWENSRFTDCCLCVAGQEFQAHKAILAARSPVFSAMFEHEMEESKKNRVEINDVEPEVFKEMMCFIYTGKAPNLDKMADDLLAAADKYALERLKVMCEDALCSNLSVENAAEILILADLHSADQLKTQAVDFINYHASDVLETSGWKSMVVSHPHLVAEAYRSLASAQCPFLGPPRKRLKQS [Y87C]

Variants of: B1
Conditions: with h33_human H3-3A

Row | effect of a mutation on the interaction | Variant
6 | with no effect | MSRVPSPPPPAEMSSGPVAESWCYTQIKVVKFSYMWTINNFSFCREEMGEVIKSSTFSSGANDKLKWCLRVNPKGLDEESKDYLSLCLLLVSCPKSEVRAKFKFSILNAKGEETKAMESQRAYRFVQGKDWGFKKFIRRDFLLDEANGLLPDDKLTLFCEVSVVQDSVNISGQNTMNMVKVPECRLADELGGLWENSRFTDCCLCVAGQEFQAHKAILAARSPVFSAMFEHEMEESKKNRVEINDVEPEVFKEMMCFIYTGKAPNLDKMADDLLAAADKYALERLKVMCEDALCSNLSVENAAEILILADLHSADQLKTQAVDFINYHASDVLETSGWKSMVVSHPHLVAEAYRSLASAQCPFLGPPRKRLKQS [Y87C]

Variants of: B1
Conditions: with hdac1_human HDAC1, Q13547
Chain of hdac1_human HDAC1, Q13547 (Q13547 whole entry): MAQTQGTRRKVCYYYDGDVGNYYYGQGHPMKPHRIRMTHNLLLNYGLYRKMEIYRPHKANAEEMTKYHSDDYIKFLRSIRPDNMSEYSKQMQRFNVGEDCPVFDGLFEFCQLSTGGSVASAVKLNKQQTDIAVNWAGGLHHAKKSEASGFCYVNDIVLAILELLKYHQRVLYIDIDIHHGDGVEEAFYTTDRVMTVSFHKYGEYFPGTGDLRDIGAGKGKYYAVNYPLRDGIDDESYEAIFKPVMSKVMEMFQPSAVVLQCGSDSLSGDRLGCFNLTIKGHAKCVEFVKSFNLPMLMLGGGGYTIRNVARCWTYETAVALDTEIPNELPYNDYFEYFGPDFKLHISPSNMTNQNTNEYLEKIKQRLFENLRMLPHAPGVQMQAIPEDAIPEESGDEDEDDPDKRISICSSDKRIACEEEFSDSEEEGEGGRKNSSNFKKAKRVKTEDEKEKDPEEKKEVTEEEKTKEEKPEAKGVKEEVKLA

Row | effect of a mutation on the interaction | Variant
7 | with no effect | MSRVPSPPPPAEMSSGPVAESWCYTQIKVVKFSYMWTINNFSFCREEMGEVIKSSTFSSGANDKLKWCLRVNPKGLDEESKDYLSLCLLLVSCPKSEVRAKFKFSILNAKGEETKAMESQRAYRFVQGKDWGFKKFIRRDFLLDEANGLLPDDKLTLFCEVSVVQDSVNISGQNTMNMVKVPECRLADELGGLWENSRFTDCCLCVAGQEFQAHKAILAARSPVFSAMFEHEMEESKKNRVEINDVEPEVFKEMMCFIYTGKAPNLDKMADDLLAAADKYALERLKVMCEDALCSNLSVENAAEILILADLHSADQLKTQAVDFINYHASDVLETSGWKSMVVSHPHLVAEAYRSLASAQCPFLGPPRKRLKQS [Y87C]

Variants of: B1
Conditions: with hdac3_human HDAC3, O15379
Chain of hdac3_human HDAC3, O15379 (O15379 whole entry): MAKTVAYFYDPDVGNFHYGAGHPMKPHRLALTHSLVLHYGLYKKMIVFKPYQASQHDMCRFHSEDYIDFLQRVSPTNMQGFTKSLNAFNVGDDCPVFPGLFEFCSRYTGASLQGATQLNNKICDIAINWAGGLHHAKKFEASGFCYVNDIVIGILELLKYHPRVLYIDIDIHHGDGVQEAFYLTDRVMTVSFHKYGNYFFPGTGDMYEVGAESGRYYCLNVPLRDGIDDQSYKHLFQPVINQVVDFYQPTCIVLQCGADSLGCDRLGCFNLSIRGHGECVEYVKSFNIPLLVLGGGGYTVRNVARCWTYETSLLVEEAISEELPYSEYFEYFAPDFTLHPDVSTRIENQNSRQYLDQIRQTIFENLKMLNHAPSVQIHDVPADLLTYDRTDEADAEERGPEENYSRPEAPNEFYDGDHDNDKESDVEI

Row | effect of a mutation on the interaction | Variant
8 | with no effect | MSRVPSPPPPAEMSSGPVAESWCYTQIKVVKFSYMWTINNFSFCREEMGEVIKSSTFSSGANDKLKWCLRVNPKGLDEESKDYLSLCLLLVSCPKSEVRAKFKFSILNAKGEETKAMESQRAYRFVQGKDWGFKKFIRRDFLLDEANGLLPDDKLTLFCEVSVVQDSVNISGQNTMNMVKVPECRLADELGGLWENSRFTDCCLCVAGQEFQAHKAILAARSPVFSAMFEHEMEESKKNRVEINDVEPEVFKEMMCFIYTGKAPNLDKMADDLLAAADKYALERLKVMCEDALCSNLSVENAAEILILADLHSADQLKTQAVDFINYHASDVLETSGWKSMVVSHPHLVAEAYRSLASAQCPFLGPPRKRLKQS [Y87C]

Variants of: B1
Conditions: with hgf_human HGF

Row | effect of a mutation on the interaction | Variant
9 | with no effect | MSRVPSPPPPAEMSSGPVAESWCYTQIKVVKFSYMWTINNFSFCREEMGEVIKSSTFSSGANDKLKWCLRVNPKGLDEESKDYLSLCLLLVSCPKSEVRAKFKFSILNAKGEETKAMESQRAYRFVQGKDWGFKKFIRRDFLLDEANGLLPDDKLTLFCEVSVVQDSVNISGQNTMNMVKVPECRLADELGGLWENSRFTDCCLCVAGQEFQAHKAILAARSPVFSAMFEHEMEESKKNRVEINDVEPEVFKEMMCFIYTGKAPNLDKMADDLLAAADKYALERLKVMCEDALCSNLSVENAAEILILADLHSADQLKTQAVDFINYHASDVLETSGWKSMVVSHPHLVAEAYRSLASAQCPFLGPPRKRLKQS [Y87C]

Variants of: B1
Conditions: with h31_human H3C1, P68431

Row | effect of a mutation on the interaction | Variant
10 | with no effect | MSRVPSPPPPAEMSSGPVAESWCYTQIKVVKFSYMWTINNFSFCREEMGEVIKSSTFSSGANDKLKWCLRVNPKGLDEESKDYLSLCLLLVSCPKSEVRAKFKFSILNAKGEETKAMESQRAYRFVQGKDWGFKKFIRRDFLLDEANGLLPDDKLTLFCEVSVVQDSVNISGQNTMNMVKVPECRLADELGGLWENSRFTDCCLCVAGQEFQAHKAILAARSPVFSAMFEHEMEESKKNRVEINDVEPEVFKEMMCFIYTGKAPNLDKMADDLLAAADKYALERLKVMCEDALCSNLSVENAAEILILADLHSADQLKTQAVDFINYHASDVLETSGWKSMVVSHPHLVAEAYRSLASAQCPFLGPPRKRLKQS [Y87C]

Variants of: B1
Conditions: with hlab_human HLA-B

Row | effect of a mutation on the interaction | Variant
11 | with no effect | MSRVPSPPPPAEMSSGPVAESWCYTQIKVVKFSYMWTINNFSFCREEMGEVIKSSTFSSGANDKLKWCLRVNPKGLDEESKDYLSLCLLLVSCPKSEVRAKFKFSILNAKGEETKAMESQRAYRFVQGKDWGFKKFIRRDFLLDEANGLLPDDKLTLFCEVSVVQDSVNISGQNTMNMVKVPECRLADELGGLWENSRFTDCCLCVAGQEFQAHKAILAARSPVFSAMFEHEMEESKKNRVEINDVEPEVFKEMMCFIYTGKAPNLDKMADDLLAAADKYALERLKVMCEDALCSNLSVENAAEILILADLHSADQLKTQAVDFINYHASDVLETSGWKSMVVSHPHLVAEAYRSLASAQCPFLGPPRKRLKQS [Y87C]

Variants of: B1
Conditions: with hnf1a_human HNF1A

Row | effect of a mutation on the interaction | Variant
12 | with no effect | MSRVPSPPPPAEMSSGPVAESWCYTQIKVVKFSYMWTINNFSFCREEMGEVIKSSTFSSGANDKLKWCLRVNPKGLDEESKDYLSLCLLLVSCPKSEVRAKFKFSILNAKGEETKAMESQRAYRFVQGKDWGFKKFIRRDFLLDEANGLLPDDKLTLFCEVSVVQDSVNISGQNTMNMVKVPECRLADELGGLWENSRFTDCCLCVAGQEFQAHKAILAARSPVFSAMFEHEMEESKKNRVEINDVEPEVFKEMMCFIYTGKAPNLDKMADDLLAAADKYALERLKVMCEDALCSNLSVENAAEILILADLHSADQLKTQAVDFINYHASDVLETSGWKSMVVSHPHLVAEAYRSLASAQCPFLGPPRKRLKQS [Y87C]

Variants of: B1
Conditions: with igf1r_human IGF1R

Row | effect of a mutation on the interaction | Variant
13 | with no effect | MSRVPSPPPPAEMSSGPVAESWCYTQIKVVKFSYMWTINNFSFCREEMGEVIKSSTFSSGANDKLKWCLRVNPKGLDEESKDYLSLCLLLVSCPKSEVRAKFKFSILNAKGEETKAMESQRAYRFVQGKDWGFKKFIRRDFLLDEANGLLPDDKLTLFCEVSVVQDSVNISGQNTMNMVKVPECRLADELGGLWENSRFTDCCLCVAGQEFQAHKAILAARSPVFSAMFEHEMEESKKNRVEINDVEPEVFKEMMCFIYTGKAPNLDKMADDLLAAADKYALERLKVMCEDALCSNLSVENAAEILILADLHSADQLKTQAVDFINYHASDVLETSGWKSMVVSHPHLVAEAYRSLASAQCPFLGPPRKRLKQS [Y87C]

Variants of: B1
Conditions: with il7ra_human IL7R

Row | effect of a mutation on the interaction | Variant
14 | with no effect | MSRVPSPPPPAEMSSGPVAESWCYTQIKVVKFSYMWTINNFSFCREEMGEVIKSSTFSSGANDKLKWCLRVNPKGLDEESKDYLSLCLLLVSCPKSEVRAKFKFSILNAKGEETKAMESQRAYRFVQGKDWGFKKFIRRDFLLDEANGLLPDDKLTLFCEVSVVQDSVNISGQNTMNMVKVPECRLADELGGLWENSRFTDCCLCVAGQEFQAHKAILAARSPVFSAMFEHEMEESKKNRVEINDVEPEVFKEMMCFIYTGKAPNLDKMADDLLAAADKYALERLKVMCEDALCSNLSVENAAEILILADLHSADQLKTQAVDFINYHASDVLETSGWKSMVVSHPHLVAEAYRSLASAQCPFLGPPRKRLKQS [Y87C]

Variants of: B1
Conditions: with int12_human INTS12, Q96CB8
Chain of int12_human INTS12, Q96CB8 (Q96CB8 whole entry): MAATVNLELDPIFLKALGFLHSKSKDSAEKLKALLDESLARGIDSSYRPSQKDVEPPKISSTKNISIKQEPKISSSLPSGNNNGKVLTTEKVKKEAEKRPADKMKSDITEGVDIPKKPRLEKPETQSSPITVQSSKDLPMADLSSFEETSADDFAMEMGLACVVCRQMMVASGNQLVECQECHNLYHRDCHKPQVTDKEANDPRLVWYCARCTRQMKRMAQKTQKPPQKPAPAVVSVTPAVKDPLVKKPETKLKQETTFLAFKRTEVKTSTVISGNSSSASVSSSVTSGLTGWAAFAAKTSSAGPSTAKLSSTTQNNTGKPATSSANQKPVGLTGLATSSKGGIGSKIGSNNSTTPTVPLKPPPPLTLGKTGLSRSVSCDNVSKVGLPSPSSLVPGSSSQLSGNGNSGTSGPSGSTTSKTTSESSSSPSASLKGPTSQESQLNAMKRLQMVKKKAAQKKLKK

Row | effect of a mutation on the interaction | Variant
15 | with no effect | MSRVPSPPPPAEMSSGPVAESWCYTQIKVVKFSYMWTINNFSFCREEMGEVIKSSTFSSGANDKLKWCLRVNPKGLDEESKDYLSLCLLLVSCPKSEVRAKFKFSILNAKGEETKAMESQRAYRFVQGKDWGFKKFIRRDFLLDEANGLLPDDKLTLFCEVSVVQDSVNISGQNTMNMVKVPECRLADELGGLWENSRFTDCCLCVAGQEFQAHKAILAARSPVFSAMFEHEMEESKKNRVEINDVEPEVFKEMMCFIYTGKAPNLDKMADDLLAAADKYALERLKVMCEDALCSNLSVENAAEILILADLHSADQLKTQAVDFINYHASDVLETSGWKSMVVSHPHLVAEAYRSLASAQCPFLGPPRKRLKQS [Y87C]
